Test results as given in patent US10005838B2, “Milk fat globule epidermal growth factor 8 regulates fatty acid uptake” (REGENTS OF THE UNIVERSITY OF CALIFORNIA, priority 2013, dated 2018).

Assay: Activity of Mfge8 sequence lacking the second discoidin domain (test not named at the place)
Conditions: mouse Mfge8 lacking the second discoidin domain

B1: SEQ ID NO:4: mouse Mfge8 sequence lacking the second discoidan domain but including all other native sequence (protein)
chain: MQVSRVLAALCGMLLCASGLFAASGDFCDSSLCLNGGTCLTGQDNDIYCLCPEGFTGLVCNETERGPCSPNPCYNDAKCLVTLDTQRGDIFTEYICQCPVGYSGIHCETETNYYNLDGEYMFTTAVPNTAVPTPAPTPDLSNNLASRCSTQLGMEGGAIADSQISASSVYMGFMGLQRWGPELARLYRTGIVNAWTASNYDSKPWIQVNLLRKMRVSGVMTQGASRAGRAEYLKTFKVAYSLDGRKFEFIQDESGGDKEFLGNLDNNSLKVNMFNPTLEAQYIKLYPVSCHRGCTLRFELLGCKPFMARYVRVLPVSWHNRITLRLELLGC
modifications: synthetic E1E2D1 mouse milk fat globule epidermal growth factor 8 (Mfge8) long construct (lacking second discoidin domain)
- activity of the Mfge8 fragment: remains active
